# From the nanobody polyreactivity screen of Harvey et al. (2022)
# Test: yeast display, Sf9 membrane polyspecificity reagent, FACS + sequencing; frameworks hold sequencing errors
# Summary of the method: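 A synthetic nanobody library was expressed on Saccharomyces cerevisiae BJ5465 by galactose induction for 36–48 hours. The library was stained for 1 hour at 4 °C with 10% biotinylated, detergent-solubilized Sf9 membrane reagent and enriched with streptavidin microbeads before FACS. Low and high (top ~1%) gates were set on anti-HA fluorescence for expression and streptavidin fluorescence for reagent binding, and each polyreactivity label reflects the gate of origin.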
row,Sequence,polyreactivity (PSR sort gate)
1,QVQLVESGGGLVQAGGSLRLSCAASGFTFVYYAMGWYRQAPGKERELVAAISTRGGSTYYADSVKGRFTISRDNAKNTVYLQMTSLKPEDTAVYYCAARSYPPGLRFDYWGQGTQVTVSS,high polyreactivity
2,QVQLVESGGGLVQAGGSLRLSCAASGFTFVYYAMGWYRQEPGKERELVAAISRSGGSTYYADSVKGRFTISRDNAKNTVYLQMNSLKPEDTEVYYCAAVTYANYYYDAYYYWGQGTQVTVSS,high polyreactivity
3,QVQLVESGGGLVQAGGSLRLSCAASGFTFVYYVMGRYRPAPGKERDLVAAINAGGGSTYYADSVKGRFTISRDNAKNTVYLQMNSLKPEDTSVYYCAARYHTSTRPCRNYWGQGTQVTVSS,high polyreactivity
4,QVQLVESGGGLVQAGGSLRLSCAASGFTFWAYTMGWYRQAPGKERELVAAITRSGGRTYYADSVKGRFTISRDNAKNTVYLQLNSLKPEDTAVYYCAAKIWSKDEKHDYWGQGTQVTGSS,high polyreactivity
5,QVQLVESGGGLVQAGGSLRLSCAASGFTFWEYALGWYRQAPGKERELVAAISRGTSTYYADSVKGRFTIPRDNAKNTVYLQMNSLKPEDTAVYYCAARQDPPLGYDYWGQGTQVTVSS,low polyreactivity
6,QVQLVESGGGLVQAGGSLRLSCAASGFTFWEYAMGWYRQAPGKERELVAAISSRGTRTYYADSVKGRFTISRDNAKNTVYLQMNSLKPEDTAVYYCATAIPDPDYIHNYWGQGTQVTVSS,high polyreactivity
7,QVQLVESGGGLVQAGGSLRLSCAASGFTFWKYAMGWYRQAPGKERELVAAISWSGGNTYYADSVKGRFTISRDNAKNTVYLQMNSLKPEDTAVYYCAAVYTPQNQFRYKYYYWGQGTQVTVSS,high polyreactivity
8,QVQLVESGGGLVQAGGSLRLSCAASGFTFWLYAMGWYRQAPGKEREFVAAISTSGGSTYADSVKGRFTISRDNAKNTVYLQMNSLKPEDTAVYYCNADPTTTTYRHQYNYWGQGTQVTVSS,low polyreactivity
9,QVQLVESGGGLVQAGGSLRLSCAASGFTFWRYALGWYRQAPGKETEFVASITWSGGSTYYADSVKGRFTISRDNAKNTVYLQMNRLQPEDTAVYYCAAVARTSGIKYYYWGQGTQVTVSS,high polyreactivity
10,QVQLVESGGGLVQAGGSLRLSCAASGFTFWRYAMGWSRQATGKERELVAVITWSGTRTYYADSVKGRFTISRDNAKNTVYLQMNSLKPEDTAVYYCAAYITDVAGRAYDYWGQGTQVTVSS,high polyreactivity
11,QVQLVESGGGLVQAGGSLRLSCAASGFTFWRYAMGWYRQAPGKERELVAAINWSGGSTNYADSVKGRFTISRDNAKNTVYLQMNSLKPEDTAVYYCAVDPYQNDPSRWYTYPRRGNYWGQGTQVTVSS,high polyreactivity
12,QVQLVESGGGLVQAGGSLRLSCAASGFTFWSYAMGWYRPAPGKERELVAAISRGGSTSYADSVKGRFTISRDNAKNTVYLLMNSLKPEDTAVYYCAALRPYRNDKGDYWGQGTQVTVSS,high polyreactivity
13,QVQLVESGGGLVQAGGSLRLSCAASGFTFWSYAMGWYRQAPGKERELVAGITIDGNTYYADSVKGRFTISRDNAKNTVYLQMNSLKPEDTAVYYCAAVAYYYGYDYWGQGTQVTVSS,low polyreactivity
14,QVQLVESGGGLVQAGGSLRLSCAASGFTFWSYTMGRYRQPHGKETELVADISWSGGSTYYADSVKGRFTISRDNAKNTVYLQMNSLKPEDTAVLYCNADGPFWARRSSRYYWGQGTQVTVSS,high polyreactivity
15,QVQLVESGGGLVQAGGSLRLSCAASGFTFWTYAMGWYRQAPGKERELVATISKRGGSTYYADSVKGRFTISRDNAMNTVYLQMNSLKPEVTAVYYCNRPSYGKEMDYWGQGTQVTVSS,high polyreactivity
16,QVQLVESGGGLVQAGGSLRLSCAASGFTFWTYARGWYRQAPGKERELVAAIDSGGSTYYADSVKGRFTISRDNAKNTVYLQMNSLKPEDTAVYYCNAGPSVTSGYDYDYWGQGTQVTVSS,low polyreactivity
17,QVQLVESGGGLVQAGGSLRLSCAASGFTFWWYAMGWYRQAPGKERELVASIDTRGGTYYADSVKGRFTISRDNAKNTVYLQMNRLKPEDTAVYYCNADGAYGNYRGGYWGQGTQVTVSS,high polyreactivity
18,QVQLVESGGGLVQAGGSLRLSCAASGFTFWYYAMGWYRQAPGKERELVAAITSGGTTYYADSVKGRFTISRDNAKNTVYLQMNSLKPEDTAVYYCAALLSIYRSQYDYWGQGTQVTVSS,high polyreactivity
19,QVQLVESGGGLVQAGGSLRLSCAASGFTFWYYAMGWYRQAPGKERELVATISRGGGSTYYADSVKGRFTISRDNAKNTVYLQMNSLKPEDTEVYYCNAVRVHAYSTGEYGYWGQGTQVTVSS,high polyreactivity
20,QVQLVESGGGLVQAGGSLRLSCAASGFTFWYYAMGWYRQAPGKERELVATITSGDSTKYADSVKGSFTISRDNAKNTVFLQMNSLNPEDNAVYYCAAEKVLPFIGYDYWGQGTQVTVSS,low polyreactivity
21,QVQLVESGGGLVQAGGSLRLSCAASGFTFYANTMGWYRQAPGKERELVAAISKSGGRTYYADSVKGRFTISRDNAKNTVYLQMNSLKPEDTAVYYCAASSGYKRNYWGQGTQVTVSS,high polyreactivity
22,QVQLVESGGGLVQAGGSLRLSCAASGFTFYAYAMGWYRQAPGKERELVAAISGRGTSTYYADSVKGRFTISRDNAKNTVYLQMNSLKPEDTAFYYCIKYPLRLYGYDYWGQGTQVTVSS,high polyreactivity

row,Sequence,polyreactivity (PSR sort gate)
1,QVQLVESGGGLVQAGGSLRLSCAASGFTFYDYAMGWYRQAPGKQREFVAAITWSGSSTYYADSVKGRFTISRDNAMNTVYLQMKSMKPEDTEVYYCAVGPFRRRGHYPTYYRYGYWGQGTEVTVSS,high polyreactivity
2,QVQLVESGGGLVQAGGSLRLSCAASGFTFYDYDMGWSRQAPGKERELVATITWSGGRTYYADSVKGRFTISRDNAKNTVYLQMNSLKPEDTAVYYCAADEPDRDYGYWGQGTQVTVSS,low polyreactivity
3,QVQLVESGGGLVQAGGSLRLSCAASGFTFYGYAMGWYRPAPGKERELVAAISWSGGSTFYADSVKGRFTISRDNAKNTVYLQMNSQKAEDTAVDYCNAKVYPWGYYTSWRTVSPYDYWGQGTQVSVSS,high polyreactivity
4,QVQLVESGGGLVQAGGSLRLSCAASGFTFYGYAMGWYRQAPGKERELVAAISSSGGRTYYADSVKGRFTISRDNEKNTVYLQMNSLKPEDTAVYYCAAEYRSYRDGYWGLGTQVTVSS,high polyreactivity
5,QVQLVESGGGLVQAGGSLRLSCAASGFTFYGYGMGWYRQAPGKERELVAVITSGGSTKYADSVKGRFTISRDNAKNTVDLQMNSLKPEDTAVYYCNVVGGRYLYSAYDYWGQGTQVTVSS,low polyreactivity
6,QVQLVESGGGLVQAGGSLRLSCAASGFTFYGYTMGWYRQAPGKERELVAAISRSGGRTYYADSVKGRFTISRDNAKNTVYLQMNSLKPEDTAVYYCAGDSRTNGYDYWGQGTQVTVSS,high polyreactivity
7,QVQLVESGGGLVQAGGSLRLSCAASGFTFYGYVMGWYRQAPGKERELVASIRSRGSRTSYADSVKGRFTISRDNAKNTVYLQMNSLKPEDTAVYYCAASRGRLPYSSTSNGDYDYWGQGTQVTVSS,high polyreactivity
8,QVQLVESGGGLVQAGGSLRLSCAASGFTFYHYAMGWYRQAPGKERELVAAISRSAGSTYYADSVKGRFTISRDNAKNTVYLQMNSLKPEDTAVYYCAKVLRAKNSFDYWGQGTHVTVSS,high polyreactivity
9,QVQLVESGGGLVQAGGSLRLSCAASGFTFYIYAMGWYRQAPGKERELVAAITTTTGSTYYADSVKGRFTISRDNAKNTVYLQMNSLKPEDTAVYYCAAEGHYYYFGYYYWGQGTQVTVSS,low polyreactivity
10,QVQLVESGGGLVQAGGSLRLSCAASGFTFYKNAMGWYRQAPGKERELVATISSGGSTYYADSVKGRFTISRYNAKNTVYLQLNSLKPEDTAVYYCAARVHHGYYSISYYYWGQGTQVTVSS,high polyreactivity
11,QVQLVESGGGLVQAGGSLRLSCAASGFTFYLNAMGWYRQAPGKERELVAAISYSDGSTYYADSVKGRFTISRDNAKNTVYFQMNSLKPEDSAVYYCDADTTDPGGAFQLKDYWGQGTQVTVSS,high polyreactivity
12,QVQLVESGGGLVQAGGSLRLSCAASGFTFYLYAMGWYRQAPGKERELVAAISSGSTTYYADSVKGRFTISRDNAKNTVYLQMNSLKPEDTAVYYCNAYYVNYVSNYEYWGQGTQVTVSS,high polyreactivity
13,QVQLVESGGGLVQAGGSLRLSCAASGFTFYLYTMGWYRQAPGKERELVATITSDGGTNYADSVKGRFTISRDNAKNTVYLQMNSLKPEDTAVYYCNAASRRGSRKQAKYDYWGQGTQVTVSS,low polyreactivity
14,QVQLVESGGGLVQAGGSLRLSCAASGFTFYNVMGWYRQAPGKERELVATISTSVDSTYYADSVKGRFTISRDNAKNTVYLQMNSLKPEDTAVYYCNADISSNYYDYFGYDYWGQGTQVTVSS,low polyreactivity
15,QVQLVESGGGLVQAGGSLRLSCAASGFTFYNYAMGWYRPAPGKERELVAAITKSGSRTYYADSVKGRFTISRDNAKNTVYLQMNSLKPEDTAVYYCARDYTVRGYDYWGQGTQVTVSS,high polyreactivity
16,QVQLVESGGGLVQAGGSLRLSCAASGFTFYNYAMGWYRQAPGKERELVAAISTSGGSTYYADSVKGRFTISRDNAKNTVYLQMNSLKPEDTAVYYCAAQATAYSYAYYYWGQGTQVTVSS,low polyreactivity
17,QVQLVESGGGLVQAGGSLRLSCAASGFTFYPYAMGCYRQAPGKERELVDAISNGASTHYADSVKGRFTISRDNAKNTVYLQMNSLKPEDTAVYYCNAYTRYPFYFVTSKYDYWGQGTQVTVSS,low polyreactivity
18,QVQLVESGGGLVQAGGSLRLSCAASGFTFYPYAMGWYRQAPGKESEFVAAITWRGASTYYADSVKGRFTISRDNAKNTVYLQMNSLKPEDTAVYYCNARWRVPRYRYDYWGQGTQVTVSS,high polyreactivity
19,QVQLVESGGGLVQAGGSLRLSCAASGFTFYQNAMGWYRQAPGKEREFVAAISRRGGSTYYADSVKGRFTISRDNAKNTVYLQMNSLKPEDTAVYYCAADYKRKSDGDYWGQGTQVTVSS,high polyreactivity
20,QVQLVESGGGLVQAGGSLRLSCAASGFTFYRNAMGWSRQAPGKERELVAAISRGGRTYYADSVKGRFTISRDNAKNTVYLQMNSLKPEDTAVYYCAVGYSGYGSSMDYWGQGTQVTVSS,high polyreactivity
21,QVQLVESGGGLVQAGGSLRLSCAASGFTFYRNAMGWYRQAPGKERELVAAISGSGGRTYADSVKGRFTISRDIAKNTVYLQMNSLKPEDTAVYYCAASGYSSYRRYSTSNGYWGQGTQVTVSS,high polyreactivity
